± gives the uncertainty stated by the source.

The values that follow come from the Human Domainome abundance scans (Beltran et al. 2025).

First the molecules themselves.
B1: REST corepressor 3, residues 87 to 134; numbered along this chain, Q9P2K3 (parent)
chain: DEWTVEDKVLFEQAFSFHGKSFHRIQQMLPDKTIASLVKYYYSWKKTR

The data set covers variants of B1. The data set is described as follows: abundance fitness (aPCA) (normalised: wild type 0, dead -1); higher = more abundant; growth selection in yeast, the domain comes from the species named. The note with it: Homo sapiens.
Consider DEWTVEDKVLFEQAFSFHGKSFHRIQQMLPDKTIAWLVKYYYSWKKTR [S36W], for which the abundance fitness is -0.825 ± 0.42.
The value for DEWTVEDKVLFEQAFSFHGKSFHRIQQMLPDKTIAVLVKYYYSWKKTR [S36V] was -0.761 ± 0.2; that for DEWTVEDKVLFEQAFSFHGKSFHRIQQMLPDKTIAKLVKYYYSWKKTR [S36K] was -0.627 ± 0.37.
Under DEWTVEDKVLFEQAFSFHGKSFHRIQQMLPDKTIAMLVKYYYSWKKTR [S36M] stands -0.288 ± 0.16; under DEWTVEDKVLFEQAFSFHGKSFHRIQQMLPDKTIADLVKYYYSWKKTR [S36D], -0.219 ± 0.4.
The value for DEWTVEDKVLFEQAFSFHGKSFHRIQQMLPDKTIAGLVKYYYSWKKTR [S36G] was -0.167 ± 0.093.
Take DEWTVEDKVLFEQAFSFHGKSFHRIQQMLPDKTIAQLVKYYYSWKKTR [S36Q]: the abundance fitness was 0.116 ± 0.12.
The value for DEWTVEDKVLFEQAFSFHGKSFHRIQQMLPDKTIALLVKYYYSWKKTR [S36L] was -1.04 ± 0.39; that for DEWTVEDKVLFEQAFSFHGKSFHRIQQMLPDKTIAHLVKYYYSWKKTR [S36H] was -0.241 ± 0.31.
The value for DEWTVEDKVLFEQAFSFHGKSFHRIQQMLPDKTIARLVKYYYSWKKTR [S36R] was -0.478 ± 0.21; that for DEWTVEDKVLFEQAFSFHGKSFHRIQQMLPDKTIATLVKYYYSWKKTR [S36T] was -0.347 ± 0.2.
The value for DEWTVEDKVLFEQAFSFHGKSFHRIQQMLPDKTIAPLVKYYYSWKKTR [S36P] was -0.852 ± 0.32; that for DEWTVEDKVLFEQAFSFHGKSFHRIQQMLPDKTIASLVLYYYSWKKTR [K39L] was -0.732 ± 0.14.
DEWTVEDKVLFEQAFSFHGKSFHRIQQMLPDKTIASLVMYYYSWKKTR [K39M]: the abundance fitness is -0.748 ± 0.2.
With DEWTVEDKVLFEQAFSFHGKSFHRIQQMLPDKTIASLVAYYYSWKKTR [K39A], the abundance fitness is -0.481 ± 0.18.
Under DEWTVEDKVLFEQAFSFHGKSFHRIQQMLPDKTIASLVEYYYSWKKTR [K39E] stands -0.574 ± 0.2; under DEWTVEDKVLFEQAFSFHGKSFHRIQQMLPDKTIASLVTYYYSWKKTR [K39T], -0.422 ± 0.23; under DEWTVEDKVLFEQAFSFHGKSFHRIQQMLPDKTIASLVCYYYSWKKTR [K39C], -0.546 ± 0.28.
The value for DEWTVEDKVLFEQAFSFHGKSFHRIQQMLPDKTIASLVDYYYSWKKTR [K39D] was -0.575 ± 0.45; that for DEWTVEDKVLFEQAFSFHGKSFHRIQQMLPDKTIASLVGYYYSWKKTR [K39G] was -0.11 ± 0.064; that for DEWTVEDKVLFEQAFSFHGKSFHRIQQMLPDKTIASLVSYYYSWKKTR [K39S] was -0.168 ± 0.062.
The value for DEWTVEDKVLFEQAFSFHGKSFHRIQQMLPDKTIASLVRYYYSWKKTR [K39R] was -0.221 ± 0.097.
Consider DEWTVEDKVLFEQAFSFHGKSFHRIQQMLPDKTIASLVHYYYSWKKTR [K39H], for which the abundance fitness is 0.075 ± 0.45.
As to DEWTVEDKVLFEQAFSFHGKSFHRIQQMLPDKTIASLVVYYYSWKKTR [K39V], the abundance fitness was -0.741 ± 0.27.
As to DEWTVEDKVLFEQAFSFHGKSFHRIQQMLPDKTIASLVNYYYSWKKTR [K39N], the abundance fitness is -0.276 ± 0.27.
Under DEWTVEDKVLFEQAFSFHGKSFHRIQQMLPDKTIASLVPYYYSWKKTR [K39P] stands -0.86 ± 0.25.
Under DEWTVEDKVLFEQAFSFHGKSFHRIQQMLPDKTIASEVKYYYSWKKTR [L37E] stands -0.628 ± 0.36; under DEWTVEDKVLFEQAFSFHGKSFHRIQQMLPDKTIASTVKYYYSWKKTR [L37T], -0.542 ± 0.41.
The value for DEWTVEDKVLFEQAFSFHGKSFHRIQQMLPDKTIASDVKYYYSWKKTR [L37D] was -0.465 ± 0.47; that for DEWTVEDKVLFEQAFSFHGKSFHRIQQMLPDKTIASMVKYYYSWKKTR [L37M] was -0.711 ± 0.43.
As for DEWTVEDKVLFEQAFSFHGKSFHRIQQMLPDKTIASSVKYYYSWKKTR [L37S], the abundance fitness was -0.773 ± 0.25.
DEWTVEDKVLFEQAFSFHGKSFHRIQQMLPDKTIASKVKYYYSWKKTR [L37K]: the abundance fitness was -0.714 ± 0.37.
The value for DEWTVEDKVLFEQAFSFHGKSFHRIQQMLPDKTIASVVKYYYSWKKTR [L37V] was -0.618 ± 0.23; that for DEWTVEDKVLFEQAFSFHGKSFHRIQQMLPDKTIASIVKYYYSWKKTR [L37I] was -0.35 ± 0.43.
The value for DEWTVEDKVLFEQAFSFHGKSFHRIQQMLPDKTIASAVKYYYSWKKTR [L37A] was -0.673 ± 0.31; that for DEWTVEDKVLFEQAFSFHGKSFHRIQQMLPDKTIASRVKYYYSWKKTR [L37R] was -0.885 ± 0.22.
The value for DEWTVEDKVLFEQAFSFHGKSFHRIQQMLPDKTIASGVKYYYSWKKTR [L37G] was -0.835 ± 0.19; that for DEWTVEDKVLFEQAFSFHGKSFHRIQQMLPDKTIASLSKYYYSWKKTR [V38S] was -0.215 ± 0.077; that for DEWTVEDKVLFEQAFSFHGKSFHRIQQMLPDKTIASLLKYYYSWKKTR [V38L] was -0.123 ± 0.065.
As for DEWTVEDKVLFEQAFSFHGKSFHRIQQMLPDKTIASLAKYYYSWKKTR [V38A], the abundance fitness is -0.182 ± 0.083.
Under DEWTVEDKVLFEQAFSFHGKSFHRIQQMLPDKTIASLMKYYYSWKKTR [V38M] stands -0.115 ± 0.095.
Regarding DEWTVEDKVLFEQAFSFHGKSFHRIQQMLPDKTIASLFKYYYSWKKTR [V38F], the abundance fitness is -0.663 ± 0.14.
Under DEWTVEDKVLFEQAFSFHGKSFHRIQQMLPDKTIASLIKYYYSWKKTR [V38I] stands 0.279 ± 0.084; under DEWTVEDKVLFEQAFSFHGKSFHRIQQMLPDKTIASLCKYYYSWKKTR [V38C], -0.647 ± 0.17; under DEWTVEDKVLFEQAFSFHGKSFHRIQQMLPDKTIASLDKYYYSWKKTR [V38D], -0.612 ± 0.25.
Under DEWTVEDKVLFEQAFSFHGKSFHRIQQMLPDKTIASLKKYYYSWKKTR [V38K] stands 0.393 ± 0.08; under DEWTVEDKVLFEQAFSFHGKSFHRIQQMLPDKTIASLYKYYYSWKKTR [V38Y], -0.036 ± 0.13; under DEWTVEDKVLFEQAFSFHGKSFHRIQQMLPDKTIASLEKYYYSWKKTR [V38E], -0.12 ± 0.16.
Under DEWTVEDKVLFEQAFSFHGKSFHRIQQMLPDKTIASLQKYYYSWKKTR [V38Q] stands -0.499 ± 0.17.
In the case of DEWTVEDKVLFEQAFSFHGKSFHRIQQMLPDKTIASLTKYYYSWKKTR [V38T], the abundance fitness was -0.266 ± 0.09.
Under DEWTVEDKVLFEQAFSFHGKSFHRIQQMLPDKTIASLRKYYYSWKKTR [V38R] stands -0.116 ± 0.069; under DEWTVEDKVLFEQAFSFHGKSFHRIQQMLPDKTIASLNKYYYSWKKTR [V38N], -0.169 ± 0.13.
The value for DEWTVEDKVLFEQAFSFHGKSFHRIQQMLPDKTIASLWKYYYSWKKTR [V38W] was -0.575 ± 0.15; that for DEWTVEDKVLFEQAFSFHGKSFHRIQQMLPDKTIASLHKYYYSWKKTR [V38H] was -0.723 ± 0.17.
